Data: publication PMC2863070
Values belong to the binder of their own block, whether it stands above or below them.

Biological target: HSV-2 virion protein 22 (VP22), encoded by gene UL49 peptide on HLA-B*07:02 (human)
Assay: 51Cr release
Conditions: chains alpha TCRAV38-2 CDR3:beta TCRBV5-1 CDR3

EC50 of peptide: 110 pM
B1: clone 9.30 (peptide)
chain 1: CAFGRGAQKLVF
chain 2: CATRIGWGTDTQYF

EC50 of peptide: 100 pM
B2: clone 9.66 (peptide)
chain 1: CAFGRGAQKLVF
chain 2: CATRIGWGTDTQYF
